# From the RNAGym collection of RNA variant scans (doi:10.1021/acssynbio.7b00057)
# B1: Pistol ribozyme (parent)
# chain: GGGUCGUUGUUCCAUAAUCGCGUGGAUAUGGCACGCAAGUUUCUACCGGGCACCGUAAAUGUCCGACUGGAGCCGUUCGGGCGGCUAUAAACAGACCUCAGGCCCGAAGCGUGGCGGCACCUGCCGCCGGUGGUAAAAAAGAUCGGAAGAGCACACGUCU
# Variants of: B1
# Experiment: aptazyme ON/OFF ratio, guanine; higher = stronger switching; co-transcriptional cleavage with and without guanine
row,Variant,aptazyme ON/OFF ratio
1,U8C G9A U10C U11A C12A C13U,1.19
2,U8G G9U U10G U11C C12U C13G,1.03
3,G9A U10A U11C C12A C13G,1.23
4,G9C U10A C12A C13U,1.23
5,U7A U8C U10A U11G C13A,1.26
6,U7A U8C U10A U11G C13U,1.31
7,U7G U10C U11C C12G C13U,1.06
8,U7A U8A G9U U10G U11C,1.05
9,U7A U8A G9C U10C U11A C12U,1.07
10,U7C U10A C12U C13G,1.14
11,U7C U8C G9C U10C U11A C12A,1.12
12,U7A U8C U11G C13U,1.21
13,U7C U8G U10C U11A C12G,1.2
14,U8A G9U U10C U11G C12U C13G,1.14
15,U7G U8A G9C U11G C12A C13U,1.06
16,U7A U8A G9A U10C U11A C12A C13U,1.13
17,U8G G9U U11A C12A C13U,1.1
18,U8G G9U U11A C12A C13G,1.22
19,U7A U8A U10C U11C C12G C13A,1.1
20,U7C U8A U11G C13U,1.19
21,U8G G9C U10G U11G,1.2

row,Variant,aptazyme ON/OFF ratio
1,U7C U8A G9C U11C C12U C13U,1.12
2,U7G U8A G9C U10A C12G C13G,1.06
3,U7G G9U U10A C12G C13G,1.24
4,U7G G9A U10C U11A C12G C13U,1.12
5,U8C G9C U10C,1.97
6,U7G G9A U10C U11C C12A,1.26
7,U7G U8A G9A U10A C12U C13G,1.07
8,U7A U8G G9C,1.97
9,U7A U8A G9C U11A C12U C13G,1.14
10,U8A U11A,1.14
11,U7G U10A U11G C12G C13A,1.18
12,U7C U8A G9C U10C U11C,1.01
13,U8G U10G U11G C13U,1.19
14,U7G U8G G9U U11G C12A C13U,1.16
15,U7A U8G U10C U11A C12G C13U,1.31
16,U7G U8A G9A C12U C13U,1.08
17,U7A U8A U10C U11A,1.2
18,U7G U8A U10G C12A,1.03
19,U7C C12G,1.85
20,U7C U8A U10A U11G C12G C13U,1.24
21,U8G G9U C12A,1.57

row,Variant,aptazyme ON/OFF ratio
1,U7A G9A U11A C12U C13G,1.22
2,U7G U8C G9U U11C C12U,2.13
3,U7G U8G G9U U10G C12U C13U,1.2
4,U7C U8C G9C U11G C12G,1.11
5,U7A U8A G9U U10A U11C C12A C13A,1.11
6,U7A U8G G9A U11A C12G C13A,1.19
7,U10G U11A C13U,1.05
8,U7A U8A G9U U10A C13U,1.24
9,U7A G9C U10C U11A C12G,1.1
10,U8A G9A U10C C13G,1.04
11,U7C U8C G9U U10G C12U,1.33
12,U7G U8A U10C U11A C12G,1.54
13,U7G U8C U11G C12A,1.14
14,U7C U8G U10A U11C C13A,1.02
15,U7G U8C G9A U11C C13A,1.34
16,U8C G9A U10G U11C C12G,1.23
17,U7G U8G G9U U10G U11A C12G C13G,1.15
18,U8A G9U U10G C12U C13U,1.45
19,U7C U8G G9C U10G U11G C13A,1.13
20,U7G G9U U10A U11G C12A,1.13
21,U7A U8A U10C U11G C12U C13G,1.1

row,Variant,aptazyme ON/OFF ratio
1,U7C U8A G9A U10C U11A C12G C13A,1.12
2,U7C G9C C12A C13U,1.02
3,U7C U8A G9C U11C C13G,1.04
4,U7C U8A G9C U10G U11C,1.1
5,U8A G9A U10A U11G C12G C13A,1.21
6,U7G U8C G9U U10G U11G C12U,1.35
7,U7A G9A U11G C12U C13A,1.34
8,U7C U8A G9C U10C U11C C12U C13U,1.02
9,U8C G9A U10A U11G C12A C13U,1.11
10,U7A U8C G9A U10G C12A,1.1
11,U7G U8C G9C U10G U11G C12A,1.17
12,U7A U10G U11G C12G C13U,1.22
13,U8C G9C U10A C13U,1.07
14,U7A U8G U10C U11C C12A C13U,1.49
15,U7A G9A U10C U11G,1.31
16,U7G U8G G9U U10C U11G C13G,1.21
17,U7G U8G G9U U10C U11G C13A,1.22
18,U7A U8C G9A U10A U11C C12G,1.21
19,U7A U8C G9A U10A U11C C12U,1.09
20,U7A U8A G9A U10C U11G C13G,1.24
21,U8C G9A U11C C12G C13U,1.18
